{"source": "paper PMC3464228", "target": "purified human fibrinogen (human) (UniProt P02671)", "sequence (P02671 36-866, chain 1 of 3)": "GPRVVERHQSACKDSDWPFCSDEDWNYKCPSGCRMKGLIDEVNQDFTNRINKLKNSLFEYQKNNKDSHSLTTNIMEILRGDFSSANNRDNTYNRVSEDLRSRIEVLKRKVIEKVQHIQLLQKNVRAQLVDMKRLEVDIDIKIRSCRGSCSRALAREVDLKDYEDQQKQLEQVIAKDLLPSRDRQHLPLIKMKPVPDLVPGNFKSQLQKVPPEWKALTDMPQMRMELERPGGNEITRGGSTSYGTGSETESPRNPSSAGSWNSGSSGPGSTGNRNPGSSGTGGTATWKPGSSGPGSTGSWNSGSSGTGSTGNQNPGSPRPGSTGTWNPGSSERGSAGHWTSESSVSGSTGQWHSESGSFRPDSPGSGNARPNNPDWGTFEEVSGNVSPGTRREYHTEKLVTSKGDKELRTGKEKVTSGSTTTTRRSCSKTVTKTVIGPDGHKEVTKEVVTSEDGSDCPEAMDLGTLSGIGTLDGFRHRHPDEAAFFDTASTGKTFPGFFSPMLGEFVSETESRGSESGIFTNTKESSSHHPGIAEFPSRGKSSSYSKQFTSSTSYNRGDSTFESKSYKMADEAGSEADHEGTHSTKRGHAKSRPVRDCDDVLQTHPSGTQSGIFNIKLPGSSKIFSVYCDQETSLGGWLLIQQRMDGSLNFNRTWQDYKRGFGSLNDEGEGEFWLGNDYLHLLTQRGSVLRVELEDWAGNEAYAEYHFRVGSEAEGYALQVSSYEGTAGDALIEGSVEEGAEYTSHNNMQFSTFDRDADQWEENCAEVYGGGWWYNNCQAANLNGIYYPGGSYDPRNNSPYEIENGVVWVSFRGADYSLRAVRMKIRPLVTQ", "sequence (P02675 45-491, chain 2 of 3, further chain)": "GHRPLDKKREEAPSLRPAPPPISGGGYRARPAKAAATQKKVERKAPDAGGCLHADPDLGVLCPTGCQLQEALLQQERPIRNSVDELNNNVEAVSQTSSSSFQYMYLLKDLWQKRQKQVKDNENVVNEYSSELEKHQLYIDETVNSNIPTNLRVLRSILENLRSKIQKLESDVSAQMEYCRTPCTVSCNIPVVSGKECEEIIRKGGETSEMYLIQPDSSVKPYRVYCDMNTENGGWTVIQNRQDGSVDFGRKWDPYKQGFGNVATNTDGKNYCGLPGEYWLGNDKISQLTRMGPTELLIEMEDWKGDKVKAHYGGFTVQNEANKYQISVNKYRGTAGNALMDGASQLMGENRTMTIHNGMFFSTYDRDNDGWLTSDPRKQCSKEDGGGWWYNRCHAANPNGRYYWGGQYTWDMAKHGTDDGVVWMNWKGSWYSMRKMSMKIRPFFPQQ", "sequence (P02679 27-453, chain 3 of 3, further chain)": "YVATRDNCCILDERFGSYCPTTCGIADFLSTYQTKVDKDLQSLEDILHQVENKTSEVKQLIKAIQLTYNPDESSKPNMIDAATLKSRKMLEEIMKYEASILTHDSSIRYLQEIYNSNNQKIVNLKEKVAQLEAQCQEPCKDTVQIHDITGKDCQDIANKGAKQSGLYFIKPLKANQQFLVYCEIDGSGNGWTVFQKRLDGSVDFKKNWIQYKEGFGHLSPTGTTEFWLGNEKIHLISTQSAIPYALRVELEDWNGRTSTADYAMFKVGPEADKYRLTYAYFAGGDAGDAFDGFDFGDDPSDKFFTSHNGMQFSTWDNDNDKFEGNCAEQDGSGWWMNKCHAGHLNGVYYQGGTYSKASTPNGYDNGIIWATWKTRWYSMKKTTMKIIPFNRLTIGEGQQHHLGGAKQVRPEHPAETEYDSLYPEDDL"}
{"substance": "serine-rich repeat glycoprotein Srr1 of Streptococcus agalactiae (native, surface expressed) (natural protein)", "values": [{"measurement": "adherence of GBS strain COH31 to immobilized human fibrinogen (0.1 µM per well), percent of inoculum bound (% of inoculum)", "value": 16}]}
